In the assay the target is human RANK, full length, expressed in or on cells (human) (UniProt Q9Y6Q6). The assay is described as follows: cell-based or functional assay.
UniProt Q9Y6Q6, sequence (Q9Y6Q6 26-616): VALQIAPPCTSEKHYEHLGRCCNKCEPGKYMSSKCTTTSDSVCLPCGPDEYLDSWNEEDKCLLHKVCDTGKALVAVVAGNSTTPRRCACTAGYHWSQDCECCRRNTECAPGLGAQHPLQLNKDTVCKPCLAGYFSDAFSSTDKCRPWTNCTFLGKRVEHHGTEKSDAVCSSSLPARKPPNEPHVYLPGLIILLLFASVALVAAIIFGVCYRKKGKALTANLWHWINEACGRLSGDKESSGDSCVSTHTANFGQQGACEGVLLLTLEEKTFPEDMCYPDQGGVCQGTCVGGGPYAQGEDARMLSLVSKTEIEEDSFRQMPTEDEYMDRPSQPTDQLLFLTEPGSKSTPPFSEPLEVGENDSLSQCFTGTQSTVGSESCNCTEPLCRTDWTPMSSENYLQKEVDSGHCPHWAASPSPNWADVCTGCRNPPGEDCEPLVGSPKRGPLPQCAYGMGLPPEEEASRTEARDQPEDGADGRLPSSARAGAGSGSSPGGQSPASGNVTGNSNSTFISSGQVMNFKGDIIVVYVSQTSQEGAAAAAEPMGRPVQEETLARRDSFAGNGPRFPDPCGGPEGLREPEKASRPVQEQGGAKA

Substance “RANKL as added to human dendritic cell cultures (Example 13; species and construct not stated) (ligand)” yielded an allo-stimulatory capacity of CD1a+ DC in a mixed lymphocyte reaction (MLR) of more than 10 fold.

For the origin of these results see patent publication US6838262.
